Reference: paper PMC10811338, “2.7 Å cryo-EM structure of human telomerase H/ACA ribonucleoprotein” (Nature Communications, 2024)

Tests used:
[1] = molecular target: T1, TCAB1 (human (endogenous in HEK293T), UniProt Q9BUR4 1-548); experiment: cryo-EM structure; telomerase-DNA-TPT complex assembled in HEK293T cells and purified as a whole, BS3 cross-linked; H/ACA RNP lobe by signal subtraction; 2.7 Å (semi-closed thumb loop) and 3.1 Å (open thumb loop) reconstructions; conditions: both partners purified
T1 construct: TCAB1, human, Cajal body localization factor of the telomerase H/ACA RNP; also called Cajal body localization factor; source: HEK293T cells transfected with TERT and hTR

[2] = molecular target: the molecule itself; experiment: as above

T1 sequence (Q9BUR4 whole entry): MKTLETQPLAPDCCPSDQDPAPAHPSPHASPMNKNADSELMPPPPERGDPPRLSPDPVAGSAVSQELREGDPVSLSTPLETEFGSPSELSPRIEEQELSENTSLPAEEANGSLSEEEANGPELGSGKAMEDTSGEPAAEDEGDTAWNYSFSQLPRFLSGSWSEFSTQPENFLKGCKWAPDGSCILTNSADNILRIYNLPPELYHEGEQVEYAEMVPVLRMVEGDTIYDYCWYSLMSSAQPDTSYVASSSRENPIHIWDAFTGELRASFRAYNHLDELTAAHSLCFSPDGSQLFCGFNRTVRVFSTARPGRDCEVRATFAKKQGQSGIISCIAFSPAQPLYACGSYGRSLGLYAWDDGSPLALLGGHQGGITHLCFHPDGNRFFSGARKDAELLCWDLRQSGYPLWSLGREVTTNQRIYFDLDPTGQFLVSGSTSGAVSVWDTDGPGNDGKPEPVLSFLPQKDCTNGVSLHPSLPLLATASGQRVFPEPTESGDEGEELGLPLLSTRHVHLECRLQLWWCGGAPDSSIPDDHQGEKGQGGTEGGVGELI

Row | binding result [1] | Binder | binding result [2]
1 | binds | NHP2 (natural protein, human (endogenous in HEK293T), UniProt Q9NX24 1-153, looked up, NHP2, human, core H/ACA protein; two copies (5’ and 3’) stand in the telomerase H/ACA RNP; also called 3’ NHP2; source: HEK293T cells transfected with TERT and hTR) MTKIKADPDGPEAQAEACSGERTYQELLVNQNPIAQPLASRRLTRKLYKCIKKAVKQKQIRRGVKEVQKFVNKGEKGIMVLAGDTLPIEVYCHLPVMCEDRNLPYVYIPSKTDLGAAAGSKRPTCVIMVKPHEEYQEAYDECLEEVQSLPLPL | 
2 |  | dyskerin (natural protein, human (endogenous in HEK293T), UniProt O60832 1-514, looked up, dyskerin, human, catalytic pseudouridine synthase subunit of H/ACA RNPs; domains NTE, PUA, TruB, CTE; two copies (5’ and 3’) stand in the telomerase H/ACA RNP; residues 1-22 (5’ copy) and 1-42 (3’ copy) are not visible in the map; also called 5’ dyskerin; 3’ dyskerin; source: endogenous, HEK293T cells transfected with TERT and hTR) MADAEVIILPKKHKKKKERKSLPEEDVAEIQHAEEFLIKPESKVAKLDTSQWPLLLKNFDKLNVRTTHYTPLACGSNPLKREIGDYIRTGFINLDKPSNPSSHEVVAWIRRILRVEKTGHSGTLDPKVTGCLIVCIERATRLVKSQQSAGKEYVGIVRLHNAIEGGTQLSRALETLTGALFQRPPLIAAVKRQLRVRTIYESKMIEYDPERRLGIFWVSCEAGTYIRTLCVHLGLLLGVGGQMQELRRVRSGVMSEKDHMVTMHDVLDAQWLYDNHKDESYLRRVVYPLEKLLTSHKRLVMKDSAVNAICYGAKIMLPGVLRYEDGIEVNQEIVVITTKGEAICMAIALMTTAVISTCDHGIVAKIKRVIMERDTYPRKWGLGPKASQKKLMIKQGLLDKHGKPTDSTPATWKQEYVDYSESAKKEVVAEVVKAPQVVAEAAKTAKRKRESESESDETPPAAPQLIKKEKKKSKKDKKAKAGLESGAEPGDGDSDTTKKKKKKKKAKEVELVSE | binds
